Four molecules from US20170174769A1 (Regeneron, published 2017) can be followed below.

Sequences and labels used below:
B3: recombinant human FGF21 expressed with an N-terminal hexahistidine tag (ligand)
chain: HHHHHHHPIPDSSPLLQFGGQVRQRYLYTDDAQQTEAHLEIREDGTVGGAADQSPESLLQLKALKPGVIQILGVKTSRFLCQRPDGALYGSLHFDPEACSFRELLLEDGYNVYQSEAHGLPLHLPGNKSPHRDPAPRGPARFLPLPGLPPALPEPPGILAPQPPDVGSSDPLSMVGPSQGRSPSYAS

Where “and” joins values, the source holds several entries; their conditions need not be identical. Equal entries are not always repeated. Where two headings read alike, the source gives them in different places.

For one assay, the target named is T1, mouse FGF21 (mouse, UniProt Q9JJN1 29-210).
T1 construct: also called mFGF21 (Prospec, # CYT-339)
T1 sequence (looked up): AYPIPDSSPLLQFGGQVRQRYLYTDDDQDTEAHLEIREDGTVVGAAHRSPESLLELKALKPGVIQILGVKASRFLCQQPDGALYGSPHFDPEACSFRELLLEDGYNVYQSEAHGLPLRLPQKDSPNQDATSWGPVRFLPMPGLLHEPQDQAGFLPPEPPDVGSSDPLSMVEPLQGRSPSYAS
Description: not described.

A further assay has as its target T2, rat FGF21 (rat, UniProt A0A7U3JW68 29-208).
T2 sequence: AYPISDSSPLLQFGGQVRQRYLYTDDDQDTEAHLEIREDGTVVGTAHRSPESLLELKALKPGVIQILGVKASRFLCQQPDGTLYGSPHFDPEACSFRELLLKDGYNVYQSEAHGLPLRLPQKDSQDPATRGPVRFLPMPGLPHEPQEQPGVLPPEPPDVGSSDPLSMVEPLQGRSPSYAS
The assay can be described thus: not described.

Assay [1] concerns the target B3. Description: cell-based or functional assay.
Assay [2] has as its target T3, biotinylated human FGF21 expressed with a N-terminal hexahistidine tag (human, UniProt Q9NSA1 29-209, biotinylated (site not stated)).
T3 construct: also called biotin-6His-hFGF21; biotin 6His-hFGF21
T3 sequence: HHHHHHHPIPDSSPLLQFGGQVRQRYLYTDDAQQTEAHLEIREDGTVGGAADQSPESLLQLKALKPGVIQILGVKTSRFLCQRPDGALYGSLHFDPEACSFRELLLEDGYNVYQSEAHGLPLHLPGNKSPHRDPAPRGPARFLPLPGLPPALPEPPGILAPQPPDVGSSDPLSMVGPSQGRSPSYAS
Description: competition ELISA: mAb blocks 300 pM biotin-6His-hFGF21 binding to coated hKLB-10his. As for the experimental part:
The ability of anti-FGF21 antibodies to block human FGF21 binding to a cognate binding partner human klotho beta was evaluated with an ELISA-based immunoassay. Briefly, human klotho beta (hKLB-10his; R&D systems, #5889-KB-050) was coated at 2μg/mL on a 96-well plate in PBS buffer overnight at 4° C. […] The equilibrated sample solutions were then transferred to hKLB-10his-coated plates. […] Samples were developed with a TMB solution to produce a colorimetric reaction and then neutralized with 1M sulfuric acid before measuring absorbance at 450 nm on a Victor plate reader. Data analysis was performed using a sigmoidal dose-response model within Prism™ software (GraphPad).
The absorbance values of the wells containing the highest concentration for each antibody were used to determine the percent maximum blockade.

Assay [3] concerns the target mouse KLB and mouse FGFR1c co-expressed on HEK293/mKLB/mFGFR1c/SRE-Luc cells (mouse). The assay can be described thus: cell-based or functional assay.
The target of assay [4] is T4, human KLB and human FGFR1c co-expressed on HEK293/hKLB/hFGFR1c/SRE-luc cells (human, UniProt Q86Z14 1-1044; P11362 22-822). Description: cell-based or functional assay.
Assay [5] addresses T4, human KLB and human FGFR1c co-expressed …. Description: cell-based or functional assay. This is another data set of the same source.
The target is the same in assay [6]. Description: cell-based or functional assay. This is another data set of the same source.
For assay [7], the target named is T5, cell-surface human FGFR1c (amino acids 1-731 of NP_075594) with cell-surface human KLB on … (human, UniProt P11362 22-822). Description: cell-based or functional assay.
In assay [8] the target is T5, cell-surface human FGFR1c (amino acids …). The assay can be described thus: cell-based or functional assay. This is another data set of the same source.

T4 sequence (Q86Z14 whole entry, chain 1 of 2): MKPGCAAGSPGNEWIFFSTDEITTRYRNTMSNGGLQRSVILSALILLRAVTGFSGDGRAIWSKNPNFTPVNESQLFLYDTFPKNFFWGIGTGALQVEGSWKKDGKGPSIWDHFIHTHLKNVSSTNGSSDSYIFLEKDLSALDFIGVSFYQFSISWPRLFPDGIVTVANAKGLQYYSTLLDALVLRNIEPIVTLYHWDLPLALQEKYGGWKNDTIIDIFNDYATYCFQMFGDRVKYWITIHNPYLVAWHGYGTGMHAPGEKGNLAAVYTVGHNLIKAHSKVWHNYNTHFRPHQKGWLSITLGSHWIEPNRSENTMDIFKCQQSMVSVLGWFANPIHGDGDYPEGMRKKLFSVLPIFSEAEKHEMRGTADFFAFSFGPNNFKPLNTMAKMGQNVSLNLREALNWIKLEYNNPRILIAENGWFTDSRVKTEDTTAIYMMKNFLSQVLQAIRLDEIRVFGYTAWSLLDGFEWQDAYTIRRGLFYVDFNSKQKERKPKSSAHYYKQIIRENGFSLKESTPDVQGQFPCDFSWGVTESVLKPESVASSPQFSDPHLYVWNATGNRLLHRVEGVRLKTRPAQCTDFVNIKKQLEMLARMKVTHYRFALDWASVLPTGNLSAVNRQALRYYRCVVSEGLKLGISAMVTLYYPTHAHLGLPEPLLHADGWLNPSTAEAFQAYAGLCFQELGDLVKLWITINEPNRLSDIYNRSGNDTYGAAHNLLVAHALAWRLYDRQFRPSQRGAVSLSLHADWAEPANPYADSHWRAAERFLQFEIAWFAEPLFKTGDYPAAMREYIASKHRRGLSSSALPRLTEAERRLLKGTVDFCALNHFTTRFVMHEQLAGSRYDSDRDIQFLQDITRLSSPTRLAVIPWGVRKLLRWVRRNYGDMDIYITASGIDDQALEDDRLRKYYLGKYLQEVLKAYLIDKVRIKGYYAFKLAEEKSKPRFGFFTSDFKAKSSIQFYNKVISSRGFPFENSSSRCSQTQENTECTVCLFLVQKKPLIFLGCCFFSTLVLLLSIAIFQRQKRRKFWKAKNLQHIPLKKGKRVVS
T4 sequence (P11362 other isoform, or with tags, fused parts or gaps limits assumed, chain 2 of 2): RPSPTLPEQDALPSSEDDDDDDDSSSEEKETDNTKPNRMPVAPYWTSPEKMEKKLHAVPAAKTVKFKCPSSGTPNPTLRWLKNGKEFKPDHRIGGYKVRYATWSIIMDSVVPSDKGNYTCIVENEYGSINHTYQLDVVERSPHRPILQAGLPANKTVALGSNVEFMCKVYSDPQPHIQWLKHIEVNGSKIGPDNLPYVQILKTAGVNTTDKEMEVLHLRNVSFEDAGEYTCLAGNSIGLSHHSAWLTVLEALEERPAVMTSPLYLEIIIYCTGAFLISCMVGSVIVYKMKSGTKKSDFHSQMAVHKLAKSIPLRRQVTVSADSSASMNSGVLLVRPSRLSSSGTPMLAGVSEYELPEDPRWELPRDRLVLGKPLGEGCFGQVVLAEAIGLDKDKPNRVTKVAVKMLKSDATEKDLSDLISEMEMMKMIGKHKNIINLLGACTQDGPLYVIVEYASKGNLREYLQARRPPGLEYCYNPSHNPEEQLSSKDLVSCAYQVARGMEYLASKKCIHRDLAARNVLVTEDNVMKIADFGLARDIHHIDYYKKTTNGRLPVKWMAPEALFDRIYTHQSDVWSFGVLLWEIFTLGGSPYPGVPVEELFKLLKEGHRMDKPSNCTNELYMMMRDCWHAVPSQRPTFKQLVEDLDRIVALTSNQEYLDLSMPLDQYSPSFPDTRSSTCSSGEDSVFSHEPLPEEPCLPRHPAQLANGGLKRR
T5 sequence (P11362 22-822, chain 1 of 2): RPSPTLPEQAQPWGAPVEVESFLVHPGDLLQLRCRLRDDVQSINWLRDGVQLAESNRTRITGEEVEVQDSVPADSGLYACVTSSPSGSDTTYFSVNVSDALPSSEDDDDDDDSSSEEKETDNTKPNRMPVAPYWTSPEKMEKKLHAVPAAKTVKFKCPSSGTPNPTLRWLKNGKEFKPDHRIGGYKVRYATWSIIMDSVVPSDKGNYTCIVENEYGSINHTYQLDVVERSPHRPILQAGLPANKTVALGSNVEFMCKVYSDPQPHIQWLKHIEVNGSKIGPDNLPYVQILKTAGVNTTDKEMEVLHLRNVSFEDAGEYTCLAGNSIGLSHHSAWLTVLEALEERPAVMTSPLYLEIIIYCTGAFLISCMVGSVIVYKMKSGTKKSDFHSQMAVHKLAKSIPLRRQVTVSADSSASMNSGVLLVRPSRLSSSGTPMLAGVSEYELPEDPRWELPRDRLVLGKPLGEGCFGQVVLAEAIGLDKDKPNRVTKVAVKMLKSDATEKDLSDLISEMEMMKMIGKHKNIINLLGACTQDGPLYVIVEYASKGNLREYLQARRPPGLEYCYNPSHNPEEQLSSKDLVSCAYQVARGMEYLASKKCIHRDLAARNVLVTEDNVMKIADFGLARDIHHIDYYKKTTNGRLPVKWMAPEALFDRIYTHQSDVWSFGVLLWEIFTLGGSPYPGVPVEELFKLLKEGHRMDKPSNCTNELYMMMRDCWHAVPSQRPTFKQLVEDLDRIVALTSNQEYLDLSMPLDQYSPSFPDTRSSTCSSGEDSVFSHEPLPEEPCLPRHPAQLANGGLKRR
T5 sequence (chain, as listed by the source, chain 2 of 2): as the sequence (Q86Z14 whole entry, chain 1 of 2) above

B1: H4H6879P (antibody, V domains shown)
VH: QVQLQESGPGLVKPSETLSLTCTVSGGSISGYYWSWIRQPPGKGLEWIGYFYNSGSTNYNPSLKSRVTMSVDTSKNQFSLRLTSVTAADTAVYYCTRERELLYFDYWGQGTLVTVSS
VL: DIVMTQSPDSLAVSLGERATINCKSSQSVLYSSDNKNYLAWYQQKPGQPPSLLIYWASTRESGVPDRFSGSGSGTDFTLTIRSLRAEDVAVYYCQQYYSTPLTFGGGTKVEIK
notes: human IgG4 Fc (H4H prefix)
Take B1: the binding result in the assay with mouse FGF21 was “no binding”. Also, the binding result in the assay with rat FGF21 is given as “no binding”. Moreover, in [1], the “IC50, inhibition of 1 nM FGF21 activation of 293/hKLB/FGFR1c/SRE-Luc cells” value amounted to 1.3 nM. In addition, in assay [2], the “% Blocking at 100 nM Antibody Concentration” value was 34% and the IC50 (in general, the midpoint of a concentration-inhibition curve) was over 100 nM.

B2: H4H6915P (antibody, V domains shown)
VH: QVQLVESGGGVVQPGRSLRLSCAASGFTFSSYVMHWVRQAPGKGLEWVSVISYDGGNKYYADSVKGRFTISRDNSKNTLDLQMNSLRAEDTAVYYCAKEDDYIWGGFFDLWGRGTLVTVSS
VL: DIQMTQSPSSLSASVGDRVTITCRASQGIRNDLGWYQKKPGKAPKRLISAAYSLQSGVTSRFSGSGSGTEFTLTISSLQPEDFATYYCLQHNSYPWTFGQGTKVEIK
notes: human IgG4 Fc (H4H prefix)
For the molecule B2, the binding result with mouse FGF21 and with rat FGF21 was “no binding” each time. Further, in assay [1], the “IC50, inhibition of 1 nM FGF21 activation of 293/hKLB/FGFR1c/SRE-Luc cells” value worked out at 0.5 nM. Moreover, the “% Blocking at 100 nM Antibody Concentration” value in [2] is 8%.

For B3, the “EC50, SRE-luc activation” value stood at 0.41 nM in [3], 1.4 nM in assay [7] and 1.1 nM in assay [8]. In addition, the “EC50, SRE-luc activation by ligand” value in [4] was 1.9 nM; in assay [5], 2.4 nM and 2.2 nM; in assay [6] it was 0.73 nM and 1.4 nM. Moreover, the “% Activation” value in assay [7] and in assay [8] was 100% throughout.

B4: H4H6504N (antibody, V domains shown)
VH: EVHLVESGGGLVQPGRSLRLSCVASGFTFDDYAMHWVRQVPGKGLEWVSVITWNSGSIGYADSVKGRFTISRDNAKNSLFLQVSSLRAEDTALYYCAKGISPTGTTPDYWGQGTLVTVSS
VL: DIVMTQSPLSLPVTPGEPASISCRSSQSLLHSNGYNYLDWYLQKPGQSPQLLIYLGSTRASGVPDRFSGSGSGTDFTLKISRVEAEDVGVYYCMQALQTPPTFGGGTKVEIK
notes: 6504N variable domains on human IgG4 Fc (H4H prefix)
For B4, the binding result with mouse FGF21 and with rat FGF21 was “no binding” throughout.
